“Also recorded” adds a separate entry of the source. Like-named read-outs stand apart in the source and are kept apart here.
Assays:
P3X63Ag8 mieloide tumor = test: Regression of implanted P3X63Ag8 myeloid tumor; assay type: in vivo, BALB/c mice
Procedure: The p25 was them injected i.p. to mice BALB/c after of 8 days of implanted P3X63Ag8 mieloide tumor and perfectly development. The doses of 22 μg/kg of weigh of p25 induced total regression in the 80% of the animals treatment. the negative controls death in the end of 30 days, where already had development compact tumors.

HEp-2 cells = test: Anti-proliferative assay on HEp-2 cells, MTT method; assay type: cell-based, human
Procedure: For the characterization of the antiproliferative activity of MG2327 “in vitro” a panel of human cell lines was evaluated (table 1). A total of 2000 cells, except for PBMC (20000), were seeded in 96 wells culture wells, and different concentrations of MG2327 were added. After 72 hours, the number of survival cells was estimated by addition of MTT (Skehan, P., Storeng, R., Scudiero, D., Monks, A., Mcmahon, J., Vistica, D., Warren, J. T., Bokesch, H., Kenney, S. and BOYD, M. R. 1990. J Natl Cancer Inst. 82:1107). The soluble formazan products were detected at 540 nm in a multiscan plate reader.

gelatine = test: Proteolytic activity, zymogram method; assay type: biochemical
Description: The method of the cimogeno using gelatine as sustrate (Vacca, A., Iurlaro, M., Ribatti, D., Minischetti, M., Nico, B., Ria, R., Pellegrino, A. and Dammacco, F. 1999. Blood. 94:4143-4155) was employed to verify the proteolytic activity of p50 and p25. Moreover was analized the enzymatic capacity of the degradation of p50.

[1] = tested on: human microvasculature endothelial cells (HMEC); test: Formation of tubular structures in matrigel; assay type: cell-based; settings: non-cytotoxic concentrations; activation with 10 ng/mL EGF, 1 μg/mL hydrocortisone
Description: Anti-angiogenic effect of MG2327 and anti-proliferative polypeptides fragments were evaluate by the method of formation of tubular structure in matrigel. Non citotoxic concentration of MG2327 and their fraction p25 y p50 were incubed with human microvasculature endothelial celulas (HMEC). The final result it evalued considering the tubular structure length formed and the number of interconexión between them. For this used Pro Express 4.5 Image-program.
Human micro-vasculature-derived human endotelial cells (HMEC) were assessed for endothelial cord formation on matrigel (Crum R, Szabo S, Folkman J. 1985. Science. 230:1375-8; Vacca, A., Ribatti, D., Presta, M., Minischettti, M., lurlaro, M, Ria, R, Albini, A, Bussolino, F. and Dammaacco, F. 1999. Blood 93:3064) after culture under non-cytotoxic MG2327 and p25 and p50 concentrations (Sanz, L., Pascual, M., Muñoz, A., González, M. A., Salvador C H, Álvarez-Vallina L. 2002. Microvascular Research 63:335-339). Results considered the length of tubular structures and the number of interconnections between them, as calculated by using the Image-Pro Express 4.5 package.

casein = test: Proteolytic activity, modified Anson and Mirsky method; assay type: biochemical
Description: The modify method of Anson y Mirsky (Anson, M. L., Mirsky, A. E. 1932. J. Gen. Physiol. 16: 59) using casein as sustrate, was adjust in our laboratory with Tripsina (y=1.9314x-0.682; R^2=0.999). The proteic fraccions obtained in the chromatography describe in the Example 6 were assay with this method.

[2] = tested on: murine mieloma P3X63Ag8 cells; test: Apoptosis: DNA laddering and electron microscopy; assay type: cell-based
Procedure: For determining the kind of tumoral cell death, murine mieloma P3X63Ag8 cells (2*10^7) were treated in vitro with MG2327 at 22 μg/mL. Treated and untreated cells were prepared for ultrastructural transmission electron microscopy studies at different times, and genomic DNA was extracted for DNA laddering assay.
DNA fragmentation was assessed by 2% agarose gel electrophoresis. Apoptosis frequently involves cellular DNA laddering of 180-200 bp, representative of inter-nucleosomal distances (Soldatenkov, V. A., Prasad, S., Voloshin, Y., and Dritschilo, A. 1998. Cell Death Differ. 5:307-12).

B1: p25: 25 kDa non-proteolytic C-terminal fragment of serralysin PRZN_SERMA/PRZN_SERSP, degradation product of p50 (protein)
chain: SYWSETNTGGDNGGHYAAAPLLDDIAAIQHLYGANPSTRTGDTVYGFNSNTGRDFLSTTSNSQKVIFAAWDAGGNDTFDFSGYTANQRINLNEKSFSDVGGLKGNVSIAAGVTIENAIGGSGNDVIVGNAANNVLKGGAGNDVLFGGGGADELWGGAGKDIFVFSAASDSAPGASDWIRDFQKGIDKIDLSFFNKEANSSDFIHFVDHFSGTAGEALLSYNASSNVTDLSVNIGGHQAPDFLVKIVGQVDVATDFIV
Q: Which results are given for B1?
A: animals with total regression (P3X63Ag8 mieloide tumor; 22 μg/kg i.p., 8 days after tumor implant): 80%; tumor regression (P3X63Ag8 mieloide tumor; mouse, in vivo): induce total regression; inhibition of the growing of the tumor cells (HEp-2 cells; 18 μg/mL): 100%; activity of 25 kDa fraction compared with 50 kDa fraction (HEp-2 cells; 9 and 18 μg/mL): most active; activity of 25 kDa component compared with MG2327 (HEp-2 cells; doses of 2.5, 4.5 and 9 μg/mL): showed major biologic activity; IC50 (HEp-2 cells; fractions recovered from SDS gels and renaturalized, p50 with Zn4SO2 5 μM added, read-out: IC50 (FIG. 2)): 0.35 nM; IC50 (HEp-2 cells; fractions recovered from SDS gels, p50 incubated with 5 μM Zn2SO4, read-out: IC50 of the fractions p25 and p50): 0.48 nM; antiproliferative activity (HEp-2 cells; gel-recovered fractions, no zinc added (incubated with EDTA)): dosis-dependiente potent anti-proliferative activity; also recorded: strong antiproliferative dose dependent activity; anti-proliferative effect (HEp-2 cells; proteins purified by DEAE chromatography): showed anti-proliferative effect on HEp.2; proteolytic activity (gelatine): no showed this activity; differentiation of endothelial cells / tubular net formation [1]: significant inhibition; also recorded: index of net formation inferior to that observed for MG2327 and p50; proteolytic (enzymatic) activity (casein): no showed enzymatic activity; also recorded: non present enzymatic activity; also recorded: do not present activity; ultrastructural changes (electron microscopy) [2]: chromatin condensing, damaged mitrocondria cristae and clustered mitocondria were detected

— patent US8076297B2, “Pharmaceutical composition containing polypeptide fragments of serralysins” (Centro De Ingenieria Genetica Y Biotecnologia, priority 2004, dated 2011)
